Measurements published in publication PMC9705753.

Biological target: Gal4 DNA-Binding Domain (DBD) linked to the LOV domain of WC-1 (N. crassa) (UniProt Q01371)
Assay: two-hybrid; Y2H-like optogenetic switch (FUN-LOV variants) in S. cerevisiae BY4741 or 59A-EC1118; genome-integrated luciferase reporter under P_GAL1 or P_5XGAL1; constant blue light or a single 2-h blue-light pulse (466 nm, 24 umol m^-2 s^-1) compared with constant darkness; 25°C, SC medium with 1 mM luciferin

UniProt Q01371, sequence (Q01371 381-508): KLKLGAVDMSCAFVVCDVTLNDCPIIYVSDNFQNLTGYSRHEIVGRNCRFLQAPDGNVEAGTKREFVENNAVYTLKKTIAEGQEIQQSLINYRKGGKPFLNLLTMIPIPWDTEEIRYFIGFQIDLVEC

fold induction of luciferase expression (blue-light pulse / darkness), 59A-EC1118 strain, P 5XGAL1-Luc: 982 fold
Substance: Gal4-activation domain (AD) tethered to the LOV domain of VVD (from UniProt Q9C3Y6 1-186) (domain or fragment)
